In article PMC3140584, “Structure–function relationships of the competence lipoprotein ComL and SSB in meningococcal transformation”:

Biological target: T1, ComL (Neisseria meningitidis MC58, UniProt Q9K0B1 17-267)
T1 sequence: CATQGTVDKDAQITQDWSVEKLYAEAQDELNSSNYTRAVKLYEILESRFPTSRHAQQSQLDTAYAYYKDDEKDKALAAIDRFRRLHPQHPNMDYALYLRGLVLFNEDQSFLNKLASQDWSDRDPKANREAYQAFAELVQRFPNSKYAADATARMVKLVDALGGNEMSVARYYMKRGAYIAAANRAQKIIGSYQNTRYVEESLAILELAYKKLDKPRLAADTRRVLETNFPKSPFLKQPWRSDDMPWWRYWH
Test: EMSA; 5 mM Mg2+; EMSA: 4.5 fmol DNA in 10 µl; 10% glycerol, 5 mM MgCl2, 0.02 mg/ml BSA, 1 mM DTT, with half volume of protein in 50 mM NaH2PO4, 300 mM NaCl, pH 8.0, 0.1% DDM (final about 25 mM phosphate, 150 mM NaCl, 0.05% DDM); 37 °C, 15 min; 6% PAGE Tris/glycine/EDTA
Conditions: protein: recombinant, tags: C-terminal 6xHis, label: 5'-32P

B1: HH10 ssDNA without DUS (ssDNA)
DNA: AACAACAACAAAAGGCCTGTCATCCAACTTCCGGACAGTAAACAACAACAAC
apparent K (half saturation): 926 nM

B2: HH10/HH11 dsDNA without DUS (dsDNA)
DNA 1: B1 DNA
DNA 2: GTTGTTGTTGTTTACTGTCCGGAAGTTGGATGACAGGCCTTTTGTTGTTGTT
apparent K (half saturation) (blunt): 467 nM
